Experiments:
Arah2-pσ1 fusion protein [1] = experiment: flow cytometry; control serum in place of anti-pσ1 serum on HeLa cells stained with Arah2-pσ1, FITC-labeled anti-rabbit
Arah2-pσ1 fusion protein [2] = experiment: flow cytometry; control serum in place of anti-pσ1 serum on L cells stained with Arah2-pσ1, FITC-labeled anti-rabbit
[3] = target: component of tight junctions expressed by L-cells; experiment: flow cytometry on L cells, 20 µg Arah2-pσ1, detected with anti-pσ1 rabbit serum and FITC-labeled anti-rabbit

Substance | MFI (Arah2-pσ1 fusion protein [1]) [MFI] | MFI (Arah2-pσ1 fusion protein [2]) [MFI] | MFI [3] [MFI]
normal rabbit serum | 26 | 32 | 
Arah2-pσ1 fusion protein |  |  | 1880

— US20180243408A1
